Laboratory results taken from PMC9317633, “Antifungal Effect of Penicillamine Due to the Selective Targeting of L-Homoserine O-Acetyltransferase” (International Journal of Molecular Sciences, 2022).

Experiments:
CaMet2NHp [1] = target: T1, CaMet2NHp (Candida albicans, UniProt Q5A948); assay: inhibition, DTNB end-point assay of CoA formed, […] nm; format: biochemical
T1 construct: gene MET2; full length with N-terminal oligo-His tag (kept), ~45 kDa; E. coli Rosetta (DE3) pLysS; dimer only in model
T1 sequence (Q5A948 1-409): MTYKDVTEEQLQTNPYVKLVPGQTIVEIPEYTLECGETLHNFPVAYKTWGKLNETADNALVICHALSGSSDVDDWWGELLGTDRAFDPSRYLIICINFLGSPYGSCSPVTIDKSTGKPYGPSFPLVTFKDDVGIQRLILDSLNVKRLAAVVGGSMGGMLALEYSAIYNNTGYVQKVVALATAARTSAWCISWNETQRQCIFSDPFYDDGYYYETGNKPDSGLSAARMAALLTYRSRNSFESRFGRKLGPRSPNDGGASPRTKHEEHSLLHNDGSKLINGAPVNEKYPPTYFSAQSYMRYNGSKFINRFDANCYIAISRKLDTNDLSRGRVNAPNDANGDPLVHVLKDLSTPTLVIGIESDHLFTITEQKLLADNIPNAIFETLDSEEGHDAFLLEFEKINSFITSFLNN

CaMet2NHp [2] = target: T1, CaMet2NHp; assay: as above; format: biochemical; details: read-out: % inhibition at 25 mM
purified protein [3] = substrate: CC(=O)SCCNC(=O)CCNC(=O)[C@H](O)C(C)(C)COP(=O)(O)OP(=O)(O)OC[C@H]1O[C@@H](n2cnc3c(N)ncnc32)[C@H](O)[C@@H]1OP(=O)(O)O; assay: purified protein; format: biochemical, Candida albicans; details: 10 mM L-Hom, pH 8.0 phosphate, 100 mM NaCl, 1 mM EDTA, 37 °C
purified protein [4] = substrate: N[C@@H](CCO)C(=O)O; assay: purified protein; format: biochemical, Candida albicans; details: 3.5 mM AcCoA, pH 8.0 phosphate, 100 mM NaCl, 1 mM EDTA, 37 °C

Molecule	IC50 (CaMet2NHp [1])	inhibition at 25000 µM (CaMet2NHp [2])	Km (purified protein [3])	Vmax (purified protein [3])	kcat (purified protein [3])	kcat/Km (purified protein [3])	Km (purified protein [4])	Vmax (purified protein [4])	kcat (purified protein [4])	kcat/Km (purified protein [4])
CC(C)(S)[C@H](N)C(=O)O [L-Pen]	~2000 µM	–	–	–	–	–	–	–	–	–
CC(C)(S)[C@@H](N)C(=O)O [D-Pen]	~2000 µM	–	–	–	–	–	–	–	–	–
CSCC[C@H](N)C(=O)O [L-Met]	–	17%	–	–	–	–	–	–	–	–
CaMet2p (Candida albicans SC5314) (protein, E. coli BL21 Star (DE3); dimer only in model) MTYKDVTEEQLQTNPYVKLVPGQTIVEIPEYTLECGETLHNFPVAYKTWGKLNETADNALVICHALSGSSDVDDWWGELLGTDRAFDPSRYLIICINFLGSPYGSCSPVTIDKSTGKPYGPSFPLVTFKDDVGIQRLILDSLNVKRLAAVVGGSMGGMLALEYSAIYNNTGYVQKVVALATAARTSAWCISWNETQRQCIFSDPFYDDGYYYETGNKPDSGLSAARMAALLTYRSRNSFESRFGRKLGPRSPNDGGASPRTKHEEHSLLHNDGSKLINGAPVNEKYPPTYFSAQSYMRYNGSKFINRFDANCYIAISRKLDTNDLSRGRVNAPNDANGDPLVHVLKDLSTPTLVIGIESDHLFTITEQKLLADNIPNAIFETLDSEEGHDAFLLEFEKINSFITSFLNN	–	–	906 ± 119 µM	20.1 µmol/min/mg	15.2 ± 0.572 s⁻¹	16800 M⁻¹ s⁻¹	405 ± 50 µM	17.1 µmol/min/mg	13 ± 0.405 s⁻¹	32100 M⁻¹ s⁻¹
CaMet2NHp (Candida albicans SC5314) (protein, full length with N-terminal oligo-His tag (kept), ~45 kDa; E. coli Rosetta (DE3) pLysS; dimer only in model) MTYKDVTEEQLQTNPYVKLVPGQTIVEIPEYTLECGETLHNFPVAYKTWGKLNETADNALVICHALSGSSDVDDWWGELLGTDRAFDPSRYLIICINFLGSPYGSCSPVTIDKSTGKPYGPSFPLVTFKDDVGIQRLILDSLNVKRLAAVVGGSMGGMLALEYSAIYNNTGYVQKVVALATAARTSAWCISWNETQRQCIFSDPFYDDGYYYETGNKPDSGLSAARMAALLTYRSRNSFESRFGRKLGPRSPNDGGASPRTKHEEHSLLHNDGSKLINGAPVNEKYPPTYFSAQSYMRYNGSKFINRFDANCYIAISRKLDTNDLSRGRVNAPNDANGDPLVHVLKDLSTPTLVIGIESDHLFTITEQKLLADNIPNAIFETLDSEEGHDAFLLEFEKINSFITSFLNN	–	–	1130 ± 150 µM	19.8 µmol/min/mg	15 ± 0.635 s⁻¹	13300 M⁻¹ s⁻¹	578 ± 118 µM	17.2 µmol/min/mg	13.1 ± 0.723 s⁻¹	22700 M⁻¹ s⁻¹
